# Assay results from US20250326855A1 (GO THERAPEUTICS, published 2025).
# Where no end group is shown, it is not given here. GalNAc = O-linked GalNAc (Tn antigen, GalNAc-alpha1-O-Ser/Thr)
# T1: CD44v6 glycopeptide … with O-linked GalNAc on threonine 5 and serine 12 (human)
# T1 construct: Synthetic glycopeptide; also called CD44v6-Tn(S + T); Tn-glycosylated CD44v6 glycopeptide
# T1 peptide: GYRQT(GalNAc)PKEDSHS(GalNAc)TTGTAAA
# T2: CD44v6 peptide glycoform with Tn on serine only (human)
# T2 construct: also called CD44v6-Tn(S)
# T2 peptide: GYRQTPKEDSHS(GalNAc)TTGTAAA
# How the values were obtained:
# [1] = target: T1, CD44v6 glycopeptide … with O-linked …; experiment: BLI (Octet); biotinylated peptide on biosensor, antibody in solution
# Experimental: (§1) The affinities of humanized 4C8 candidates 1-8 against the CD44v6 glycopeptide and a MUC1 glycopeptide were measured using by bio-layer interferometry (BLI) using an Octet system. The peptides were immobilized onto the biosensor by biotin (ligand) and antibodies were in solution (analyte). Candidate 8(4C8-HV7-4-1-A/LV7-46-A) was most similar to the original […] antibody and was selected for further testing. Table 13 summarizes the dissociation constants (KD) for the noted humanized 4C8 candidates against the glycopeptides.
# [2] = target: T3, MUC1 glycopeptide (MUC1-Tn) (UniProt P15941 138-197, limits assumed, Tn (GalNAc) glycosylated; sites not stated in the examples); experiment: as above
# Experimental: as §1
# [3] = target: Tn-glycosylated CD44 (human) (UniProt P16070); experiment: ELISA, antibody fixed at 1 ug/mL, coated antigen CD44_10-G(S1T1)-BSA titrated
# [4] = target: T1, CD44v6 glycopeptide … with O-linked …; experiment: hybridoma screening (ELISA, flow cytometry, immunofluorescence)
# [5] = target: T1, CD44v6 glycopeptide … with O-linked …; experiment: BLI (Octet), apparent affinity with avidity factored in
# [6] = target: T1, CD44v6 glycopeptide … with O-linked …; experiment: BLI (Octet); biotinylated peptide on biosensor, antibody in solution; Table 13 Octet run with the humanized candidates; 4C8-cAb (mouse) as reference
# Experimental: as §1
# [7] = target: T1, CD44v6 glycopeptide … with O-linked …; experiment: SPR (Biacore); Biacore, not Octet
# [8] = target: T2, CD44v6 peptide glycoform with Tn on …; experiment: BLI (Octet)
# [9] = target: T3, MUC1 glycopeptide (MUC1-Tn); experiment: Biacore, column 'Affinity (Biacore)', row MUC1-Tn
# T3 sequence (P15941 138-197 limits assumed): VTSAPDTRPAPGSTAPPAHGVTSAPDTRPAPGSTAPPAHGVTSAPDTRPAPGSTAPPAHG
Kd [1] [nM],binding result [4],Binder,further results
194,–,"humanized 4C8 candidate 2 (4C8-HV1-46-A/LV7-43-A) (antibody, V domains shown, also called Molecule Number 2) VH: QVQLVQSGAEVKKPGASVKVSCKASGYTFTSYWMHWVRQAPGQGLEWIGNIYPRSGTTNYDGYFKSRATLTVDTSTSTAYMELSSLRSEDTAVYFCTRSGYDYPFVYWGQGTLVTVSS VL: QAVVTQEPSLTVSPGGTVTLTCRTSTGAVSIRNYANWVQEKPGQAFRGLIGGTNNRAPWTPARFSGSLLGDKAALTLSGVQPEDEAEYFCALLYSNYWVFGGGTKLTVL",–
169,–,"humanized 4C8 candidate 6 (4C8-HV1-46-A/LV7-46-A) (antibody, V domains shown, also called Molecule Number 6) VH: QVQLVQSGAEVKKPGASVKVSCKASGYTFTSYWMHWVRQAPGQGLEWIGNIYPRSGTTNYDGYFKSRATLTVDTSTSTAYMELSSLRSEDTAVYFCTRSGYDYPFVYWGQGTLVTVSS VL: QAVVTQEPSLTVSPGGTVTLTCRTSTGAVSIRNYANWVQEKPGQAFRGLIGGTNNRAPWTPARFSGSLLGDKAALTLSGAQPEDEAEYFCALLYSNYWVFGGGTKLTVL",binding result [2]: no binding (tested: affinity was below the detection limits)
191,–,"humanized 4C8 candidate 1 (4C8-HV1-18-A/LV7-43-A) (antibody, V domains shown, also called Molecule Number 1) VH: QVQLVQSGAEVKKPGASVKVSCKASGYTFTSYWMHWVRQAPGQGLEWIGNIYPRSGTTNYDGYFKSRATLTVDTSTSTAYMELRSLRSDDTAVYFCTRSGYDYPFVYWGQGTLVTVSS VL: QAVVTQEPSLTVSPGGTVTLTCRTSTGAVSIRNYANWVQEKPGQAFRGLIGGTNNRAPWTPARFSGSLLGDKAALTLSGVQPEDEAEYFCALLYSNYWVFGGGTKLTVL",EC50 (read off the curve) [3]: 0.02 µg/mL
177,–,"humanized 4C8 candidate 5 (4C8-HV1-18-A/LV7-46-A) (antibody, V domains shown, also called Molecule Number 5) VH: QVQLVQSGAEVKKPGASVKVSCKASGYTFTSYWMHWVRQAPGQGLEWIGNIYPRSGTTNYDGYFKSRATLTVDTSTSTAYMELRSLRSDDTAVYFCTRSGYDYPFVYWGQGTLVTVSS VL: QAVVTQEPSLTVSPGGTVTLTCRTSTGAVSIRNYANWVQEKPGQAFRGLIGGTNNRAPWTPARFSGSLLGDKAALTLSGAQPEDEAEYFCALLYSNYWVFGGGTKLTVL",–
161,–,"humanized 4C8 candidate 3 (4C8-HV1-69-A/LV7-43-A) (antibody, V domains shown, also called Molecule Number 3) VH: QVQLVQSGAEVKKPGSSVKVSCKASGYTFTSYWMHWVRQAPGQGLEWIGNIYPRSGTTNYDGYFKSRATLTVDTSTSTAYMELSSLRSEDTAVYFCTRSGYDYPFVYWGQGTLVTVSS VL: QAVVTQEPSLTVSPGGTVTLTCRTSTGAVSIRNYANWVQEKPGQAFRGLIGGTNNRAPWTPARFSGSLLGDKAALTLSGVQPEDEAEYFCALLYSNYWVFGGGTKLTVL",–
183,–,"humanized 4C8 candidate 7 (4C8-HV1-69-A/LV7-46-A) (antibody, V domains shown, also called Molecule Number 7) VH: QVQLVQSGAEVKKPGSSVKVSCKASGYTFTSYWMHWVRQAPGQGLEWIGNIYPRSGTTNYDGYFKSRATLTVDTSTSTAYMELSSLRSEDTAVYFCTRSGYDYPFVYWGQGTLVTVSS VL: QAVVTQEPSLTVSPGGTVTLTCRTSTGAVSIRNYANWVQEKPGQAFRGLIGGTNNRAPWTPARFSGSLLGDKAALTLSGAQPEDEAEYFCALLYSNYWVFGGGTKLTVL",EC50 (read off the curve) [3]: 0.02 µg/mL; binding result [2]: no binding (tested: affinity was below the detection limits)
–,binds,"2B2 antibody (antibody, V domains shown, Murine monoclonal antibody) VH: EVQLVESGGGLVKPGGSLKLSCAASGFTFSSYAMSWVRQSPERRLEWVAEISSGGSYTYYPDTVTGRFTISRDNAKNTLYLEMSSLRSEDTAMYYCARTVGEDWYFDVWGAGTTVTVSS VL: DIQMTQTTSSLSASLGDRVTISCRASQDISHYLNWYQQKPDGAVKLLIYSTSRLHSGVPSRFSGSGSGTDYSLTISNLEQEDIATYFCQQGYTLPFTFGSGTKLEIK",–
–,binds,"18G9 antibody (antibody, V domains shown, Murine monoclonal antibody) VH: DVQLVESGGGLVQPGGSRKLSCAASGFTFSSFGMHWVRQAPEKGLEWVAYISSGSSTIYYADTVKGRFTISRDNPKNTLFLQMTSLRSEDTAMYYCARGSYRAMDYWGQGTSVTVSS VL: QIVLTQSPALMSASPGEKVTMTCSASSSVNYMFWYQQKPRSSPKPWIYLTSNLASGVPARFSGSGSGTSYSLTISSMEAEDAATYYCQLWSSNPFTFGSGTKLEIK",–
–,binds,"10H4 antibody (antibody, V domains shown, Rabbit monoclonal antibody) VH: QSLEESGGRLVTPGTPLTLTCTASGFTINTYHMGWFRQAPGKGLQYIGIVSHDVGTYYATWAKGRFTISKTSSTTVDLRMPSPTTEDTATYICARGPGYWTFNLWGQGTLVTVSS VL: AQVLTQTPASVSAAVGGTVTINCQASQSVYNNNQLSWYQQKPGQPLKQLIYKASTLASGVPSRFKGSGSGSQFTLTISDLECDDAATYFCAGGYKGDIHPFGGGTEVVVK",–
–,binds,"1D12 antibody (antibody, V domains shown, Murine monoclonal antibody) VH: DVQLVESGGGLVQPGGSRKLSCAASGFTFSSFGIHWVRQAPEKGLEWVAYISSGSSTIYYADTVKGRFTISRDNPKNTLFLQMTSLRSEDTAMYYCARGSKVVAKSRGYWYFDVWGAGTTVTVSS VL: DVVVTQTPLFLPVSFGDQVSISCRSSQSLANNYGITYLSWYLHRPGQSPQLLIYGISNRFSGVPDRFSGSGSGTDFTLKISTIKPEDLGMYYCLQGTHQPWTFGGGTKLEIK",–
–,–,"4C8 monoclonal antibody (antibody, V domains shown, Murine hybridoma antibody; also called 4C8 mAb; mAb 4C8) VH: QVQLQQPGSELVRPGASVKLSCKASGYTFTSYWMHWVKQRPGQGLEWIGNIYPRSGTTNYDGYFKSKATLTVDTSSSTAYMQLSSLTSEDSAVYFCTRSGYDYPFVYWGQGTLVTVSA VL: QAVVTQESALTTSPGETVTLTCRTSTGAVSIRNYANWVQEKPDHLFTGLIGGTNNRAPGVPARFSGSLIGDKAALTITGAQPEDEAIYFCALLYSNYWVFGGGTKLTVL",Kd [5]: 7.9 nM; Kd [6]: 163 nM; EC50 (read off the curve) [3]: 0.02 µg/mL; Kd [7]: 128 nM; Kd [8]: 6.4 nM; Kd [9]: > 400 nM
